{"source": "the supplement of paper PMC10567573", "parents": {"B1": {"name": "TRAF3IP2 (parent)", "chain": "FMEKRNQWLVSQLSAASPDTGHDS"}}}
{"variants_of": "B1", "assay": "protein stability index of a GFP-peptide fusion (GPS, HEK-293T) (PSI 1-6); higher = more stable", "details": "c terminus: a fixed tail appended"}
{"variant": "FMEKRLQWLVSQLSAASPDTGHDS", "note": "[N6L]", "protein stability index": 1.51}
{"variant": "FMEKRWQWLVSQLSAASPDTGHDS", "note": "[N6W]", "protein stability index": 1.29}
{"variant": "FMEKRTQWLVSQLSAASPDTGHDS", "note": "[N6T]", "protein stability index": 1.83}
{"variant": "FMEKRRQWLVSQLSAASPDTGHDS", "note": "[N6R]", "protein stability index": 2.44}
{"variant": "FMEKRYQWLVSQLSAASPDTGHDS", "note": "[N6Y]", "protein stability index": 1.56}
{"variant": "FMEKINQWLVSQLSAASPDTGHDS", "note": "[R5I]", "protein stability index": 1.68}
{"variant": "FMEKENQWLVSQLSAASPDTGHDS", "note": "[R5E]", "protein stability index": 3.5}
{"variant": "FMEKANQWLVSQLSAASPDTGHDS", "note": "[R5A]", "protein stability index": 1.97}
{"variant": "FMEKDNQWLVSQLSAASPDTGHDS", "note": "[R5D]", "protein stability index": 2.99}
{"variant": "FMEKPNQWLVSQLSAASPDTGHDS", "note": "[R5P]", "protein stability index": 1.36}
{"variant": "FMEKQNQWLVSQLSAASPDTGHDS", "note": "[R5Q]", "protein stability index": 2.67}
{"variant": "FMEKYNQWLVSQLSAASPDTGHDS", "note": "[R5Y]", "protein stability index": 1.89}
{"variant": "FMEKMNQWLVSQLSAASPDTGHDS", "note": "[R5M]", "protein stability index": 2.94}
{"variant": "FMEKRNQWLVSQLSAASPDYGHDS", "note": "[T20Y]", "protein stability index": 2.64}
{"variant": "FMEKRNQWLVSQLSAASPDKGHDS", "note": "[T20K]", "protein stability index": 2.47}
{"variant": "FMEKRNQWLVSQLSAASPDQGHDS", "note": "[T20Q]", "protein stability index": 2.51}
{"variant": "FMEKRNQWLVSQLSAASPDIGHDS", "note": "[T20I]", "protein stability index": 1.74}
{"variant": "FMEKRNQWLVSQLSAASPDHGHDS", "note": "[T20H]", "protein stability index": 2.38}
{"variant": "FMEKRNQWLVSQLSAASPDEGHDS", "note": "[T20E]", "protein stability index": 1.75}
{"variant": "FMEKRNQWLVSQLSAASPDCGHDS", "note": "[T20C]", "protein stability index": 2.65}
{"variant": "FMEKRNQWLVSNLSAASPDTGHDS", "note": "[Q12N]", "protein stability index": 2.81}
{"variant": "FMEKRNQWLVSPLSAASPDTGHDS", "note": "[Q12P]", "protein stability index": 2.71}
{"variant": "FMEKRNQWLVSWLSAASPDTGHDS", "note": "[Q12W]", "protein stability index": 1.45}
{"variant": "FMEKRNQWLVSELSAASPDTGHDS", "note": "[Q12E]", "protein stability index": 3.33}
{"variant": "FMEKRNQWLVSFLSAASPDTGHDS", "note": "[Q12F]", "protein stability index": 1.94}
{"variant": "FMEKRNQWLVSYLSAASPDTGHDS", "note": "[Q12Y]", "protein stability index": 1.98}
{"variant": "FMEKRNIWLVSQLSAASPDTGHDS", "note": "[Q7I]", "protein stability index": 2.35}
{"variant": "FMEKRNEWLVSQLSAASPDTGHDS", "note": "[Q7E]", "protein stability index": 2.72}
{"variant": "FMEKRNSWLVSQLSAASPDTGHDS", "note": "[Q7S]", "protein stability index": 1.64}
{"variant": "FMEKRNKWLVSQLSAASPDTGHDS", "note": "[Q7K]", "protein stability index": 3.36}
{"variant": "FMEKRNMWLVSQLSAASPDTGHDS", "note": "[Q7M]", "protein stability index": 1.8}
{"variant": "FMEKRNWWLVSQLSAASPDTGHDS", "note": "[Q7W]", "protein stability index": 2.86}
{"variant": "FMEKRNHWLVSQLSAASPDTGHDS", "note": "[Q7H]", "protein stability index": 2.26}
{"variant": "FMEKRNDWLVSQLSAASPDTGHDS", "note": "[Q7D]", "protein stability index": 3.31}
{"variant": "FMEKRNRWLVSQLSAASPDTGHDS", "note": "[Q7R]", "protein stability index": 2.98}
{"variant": "FMEKRNTWLVSQLSAASPDTGHDS", "note": "[Q7T]", "protein stability index": 1.79}
{"variant": "FMEKRNVWLVSQLSAASPDTGHDS", "note": "[Q7V]", "protein stability index": 1.81}
{"variant": "FMEKRNQWLVSQLIAASPDTGHDS", "note": "[S14I]", "protein stability index": 2.08}
{"variant": "FMEKRNQWLVSQLRAASPDTGHDS", "note": "[S14R]", "protein stability index": 2.39}
{"variant": "FMEKRNQWLVSQLAAASPDTGHDS", "note": "[S14A]", "protein stability index": 2.34}
{"variant": "FMEKRNQWLVSQLLAASPDTGHDS", "note": "[S14L]", "protein stability index": 1.66}
{"variant": "FMEKRNQWLVSQLVAASPDTGHDS", "note": "[S14V]", "protein stability index": 1.65}
{"variant": "FMEKRNQWLVSQLSAASPYTGHDS", "note": "[D19Y]", "protein stability index": 1.41}
{"variant": "FMEKRNQWLVSQLSAASPMTGHDS", "note": "[D19M]", "protein stability index": 2.57}
{"variant": "FMEKRNQWLVSQLSAASPFTGHDS", "note": "[D19F]", "protein stability index": 1.8}
{"variant": "FMEKRNQWLVSQLSAASPWTGHDS", "note": "[D19W]", "protein stability index": 1.52}
{"variant": "FMEKRNQWLVSQLSAASPETGHDS", "note": "[D19E]", "protein stability index": 1.91}
{"variant": "FMEKRNQWLVSQLSAASPTTGHDS", "note": "[D19T]", "protein stability index": 3.02}
{"variant": "FMEKRNQWLVSQLSAASPITGHDS", "note": "[D19I]", "protein stability index": 2.52}
{"variant": "FMEKRNQWLVSQESAASPDTGHDS", "note": "[L13E]", "protein stability index": 3.2}
{"variant": "FMEKRNQWLVSQGSAASPDTGHDS", "note": "[L13G]", "protein stability index": 2.47}
{"variant": "FMEKRNQWLVSQYSAASPDTGHDS", "note": "[L13Y]", "protein stability index": 2.35}
{"variant": "FMEKRNQWLVSQTSAASPDTGHDS", "note": "[L13T]", "protein stability index": 2.67}
{"variant": "FMEKRNQWLVSQSSAASPDTGHDS", "note": "[L13S]", "protein stability index": 3.17}
{"variant": "FMEKRNQWLVSQWSAASPDTGHDS", "note": "[L13W]", "protein stability index": 2.45}
{"variant": "FMEKRNQWLVSQKSAASPDTGHDS", "note": "[L13K]", "protein stability index": 2.84}
{"variant": "FMEKRNQWLVSQQSAASPDTGHDS", "note": "[L13Q]", "protein stability index": 2.5}
{"variant": "FMEKRNQWLVSQDSAASPDTGHDS", "note": "[L13D]", "protein stability index": 3.45}
{"variant": "FMEKRNQWLVSQLSAAYPDTGHDS", "note": "[S17Y]", "protein stability index": 1.71}
{"variant": "FMEKRNQWLVSQLSAATPDTGHDS", "note": "[S17T]", "protein stability index": 3.03}
{"variant": "FMEKRNQWLVSQLSAACPDTGHDS", "note": "[S17C]", "protein stability index": 2.98}
{"variant": "FMEKRNQWLVSQLSAANPDTGHDS", "note": "[S17N]", "protein stability index": 2.35}
{"variant": "FMEKRNQWLVSQLSAAFPDTGHDS", "note": "[S17F]", "protein stability index": 1.88}
{"variant": "FMEKRNQWDVSQLSAASPDTGHDS", "note": "[L9D]", "protein stability index": 4.31}
{"variant": "FMEKRNQWEVSQLSAASPDTGHDS", "note": "[L9E]", "protein stability index": 4.27}
{"variant": "FMEKRNQWYVSQLSAASPDTGHDS", "note": "[L9Y]", "protein stability index": 2.9}
{"variant": "FMEKRNQWKVSQLSAASPDTGHDS", "note": "[L9K]", "protein stability index": 2.7}
{"variant": "FMEKRNQWIVSQLSAASPDTGHDS", "note": "[L9I]", "protein stability index": 2.9}
{"variant": "FMEKRNQWMVSQLSAASPDTGHDS", "note": "[L9M]", "protein stability index": 2.36}
{"variant": "FMEKRNQWAVSQLSAASPDTGHDS", "note": "[L9A]", "protein stability index": 2.19}
{"variant": "FMEKRNQWPVSQLSAASPDTGHDS", "note": "[L9P]", "protein stability index": 3.83}
{"variant": "FFEKRNQWLVSQLSAASPDTGHDS", "note": "[M2F]", "protein stability index": 3.6}
{"variant": "FEEKRNQWLVSQLSAASPDTGHDS", "note": "[M2E]", "protein stability index": 4.75}
{"variant": "FYEKRNQWLVSQLSAASPDTGHDS", "note": "[M2Y]", "protein stability index": 2.97}
{"variant": "FNEKRNQWLVSQLSAASPDTGHDS", "note": "[M2N]", "protein stability index": 3.29}
{"variant": "FDEKRNQWLVSQLSAASPDTGHDS", "note": "[M2D]", "protein stability index": 3.06}
{"variant": "FQEKRNQWLVSQLSAASPDTGHDS", "note": "[M2Q]", "protein stability index": 3.27}
{"variant": "FCEKRNQWLVSQLSAASPDTGHDS", "note": "[M2C]", "protein stability index": 2.94}
{"variant": "FSEKRNQWLVSQLSAASPDTGHDS", "note": "[M2S]", "protein stability index": 2.2}
{"variant": "FMEKRNQWLVKQLSAASPDTGHDS", "note": "[S11K]", "protein stability index": 2.7}
{"variant": "FMEKRNQWLVHQLSAASPDTGHDS", "note": "[S11H]", "protein stability index": 2.63}
{"variant": "FMEKRNQWLVIQLSAASPDTGHDS", "note": "[S11I]", "protein stability index": 2.06}
{"variant": "FMEKRNQWLVQQLSAASPDTGHDS", "note": "[S11Q]", "protein stability index": 2.89}
{"variant": "FMEKRNQWLVEQLSAASPDTGHDS", "note": "[S11E]", "protein stability index": 3.27}
{"variant": "FMEKRNQWLVCQLSAASPDTGHDS", "note": "[S11C]", "protein stability index": 2.22}
{"variant": "FMEKRNQWLVSQLSNASPDTGHDS", "note": "[A15N]", "protein stability index": 2.21}
{"variant": "FMEKRNQWLVSQLSEASPDTGHDS", "note": "[A15E]", "protein stability index": 2.73}
{"variant": "FMEKRNQWLVSQLSHASPDTGHDS", "note": "[A15H]", "protein stability index": 2.33}
{"variant": "FMEKRNQWLVSQLSPASPDTGHDS", "note": "[A15P]", "protein stability index": 2.75}
{"variant": "FMEKRNQWLVSQLSVASPDTGHDS", "note": "[A15V]", "protein stability index": 1.83}
{"variant": "FMEKRNQWLVSQLSQASPDTGHDS", "note": "[A15Q]", "protein stability index": 2.34}
{"variant": "FMEKRNQWLVSQLSDASPDTGHDS", "note": "[A15D]", "protein stability index": 2.47}
{"variant": "FMEKRNQWLVSQLSSASPDTGHDS", "note": "[A15S]", "protein stability index": 1.79}
{"variant": "FMEKRNQWLVSQLSIASPDTGHDS", "note": "[A15I]", "protein stability index": 1.77}
